B1: TRL8605 (antibody, V domains shown)
VH: QVQLVQSGGGVVQPGRSLRLSCAVSGFTFSSYGMHWVRQAPGKGLEWVTIISYDGSNYDYADSVKGRFTISRDNSKNMVYLQMNSLRADDTAVYYCAKDGFDYWGQGTLVTVSS
VL: DIVLTQSPDSLAVSLGERATINCKSSQSVLYSSNNRTYLAWFQQKSGQPPKLLIYWASTRQSGVADRFSGSGSGTDFTLTISSLQAEDVAVYYCQQYYTTPFTFGPGTRVDFKR
notes: Human variable regions cloned from donor B cells and fused recombinantly to an independently cloned generic constant region; Kappa light chain
B2: TRL8608 (antibody, V domains shown)
VH: QVQLVQSGAEVKKPGASVKISCKASGYTFTSYYMHWLRQAPGQGLEWMGVINPTDGSTSYAQKFHGRVTMTRVTSTSTVYMDLSSLRSDDTAMYYCAKAHIHAAEGEWFDPWGQGTLVTVSS
VL: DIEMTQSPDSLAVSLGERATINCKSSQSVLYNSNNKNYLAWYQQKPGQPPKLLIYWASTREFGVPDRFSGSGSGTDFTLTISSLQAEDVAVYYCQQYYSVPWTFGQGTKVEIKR
notes: as for B1
B3: TRL8504 (antibody, V domains shown)
VH: QVQLVESGGGVVRPGRSLRLSCAASGFTFNRFAMHWVRQAPGKGLEWVSVISYDGHNKYYIDSVKGRFTISRDDSKNTLHLQMNSLRPEDTAVYYCARARDDGRGIFDYWGQGILVTVSS
VL: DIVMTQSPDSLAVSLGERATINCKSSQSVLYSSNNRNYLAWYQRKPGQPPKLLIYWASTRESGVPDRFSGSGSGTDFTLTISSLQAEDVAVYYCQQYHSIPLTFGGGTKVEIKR
notes: as for B1
B4: TRL8507 (antibody, V domains shown)
VH: QVQLVESGGGVVQPGRSLRLSCAASGFTFSNYGMHWVRQAPGKGLEWVAVISFDGGNKYYADSVKGRFTISRDNSKNTLYLQMNSLRAEDTAVYYCAKSGYFDSSGYFYPYYYYGMDVWGQGTTVTVSS
VL: DIELTQAPSVSVSPGQTARITCSGDALPKEYAYWYQQKPGQAPVLVIYKDSERPSGIPERFSGSSSGTTVTLTISGVQAEDEGDYYCQSADSSGTHVVFGGGTKLTVL
notes: Human variable regions cloned from donor B cells and fused recombinantly to an independently cloned generic constant region; Lambda light chain

Experiments:
BSA = biological target: T1, BSA (UniProt P02769 25-607); assay: adsorption ELISA on coated BSA control, serial dilutions; ND: not detectable
T1 construct: Control protein in the adsorption ELISA

[1] = biological target: T2, KIR3DL1 Extracellular Domain (UniProt P43629 22-340, limits assumed); assay: adsorption ELISA on coated KIR ECD, serial dilutions; ND: not detectable
T2 construct: extracellular domain; ECD either purchased or produced in house; also called KIR3DL1 ECD
Experimental: (§1) The mAbs prepared in Example 1 were tested in adsorption ELISA using different KIR Extracellullar Domains (ECD), either purchased or produced in house. Serial dilutions allowed calculating binding affinities (listed below in Table 1 in nM); ND: not detectable.

[2] = biological target: T3, KIR2DL4 Extracellular Domain (UniProt Q99706 22-242, limits assumed); assay: as above
T3 construct: extracellular domain; ECD either purchased or produced in house; also called KIR2DL4 ECD
Experimental: as §1

[3] = biological target: T4, KIR3DL3 Extracellular Domain (UniProt Q8N743 26-322, limits assumed); assay: as above
T4 construct: extracellular domain; ECD either purchased or produced in house; also called KIR3DL3 ECD
Experimental: as §1

[4] = biological target: T5, KIR3DL2 Extracellular Domain (UniProt P43630 22-340, limits assumed); assay: as above
T5 construct: extracellular domain; ECD either purchased or produced in house; also called KIR3DL2 ECD
Experimental: as §1

[5] = biological target: T6, KIR3DS1 Extracellular Domain (UniProt Q14943 22-340, limits assumed); assay: as above
T6 construct: extracellular domain; ECD either purchased or produced in house; also called KIR3DS1 ECD
Experimental: as §1

[6] = biological target: T7, KIR2DL2 Extracellular Domain (UniProt P43627 22-245, limits assumed); assay: adsorption ELISA on coated KIR ECD, serial dilutions; printed as 'Affinity nM'
T7 construct: extracellular domain; ECD either purchased or produced in house; also called KIR2DL2 ECD
Experimental: as §1

[7] = biological target: T8, KIR2DL3 Extracellular Domain (UniProt P43628 22-245, limits assumed); assay: as above
T8 construct: extracellular domain; ECD either purchased or produced in house; also called KIR2DL3 ECD
Experimental: as §1

[8] = biological target: T9, KIR2DS4 Extracellular Domain (UniProt P43632 22-245, limits assumed); assay: as above
T9 construct: extracellular domain; ECD either purchased or produced in house; also called KIR2DS4 ECD
Experimental: as §1

[9] = biological target: T10, KIR2DL1 Extracellular Domain (UniProt P43626 22-245, limits assumed); assay: as above
T10 construct: extracellular domain; ECD either purchased or produced in house; also called KIR2DL1 ECD
Experimental: as §1

[10] = biological target: T2, KIR3DL1 Extracellular Domain; assay: as above
Experimental: as §1

[11] = biological target: T3, KIR2DL4 Extracellular Domain; assay: as above
Experimental: as §1

[12] = biological target: T6, KIR3DS1 Extracellular Domain; assay: as above
Experimental: as §1

[13] = biological target: T10, KIR2DL1 Extracellular Domain; assay: adsorption ELISA on coated KIR ECD, serial dilutions; ND: not detectable
Experimental: as §1

[14] = biological target: T9, KIR2DS4 Extracellular Domain; assay: as above
Experimental: as §1

[15] = biological target: T5, KIR3DL2 Extracellular Domain; assay: adsorption ELISA on coated KIR ECD, serial dilutions; printed as 'Affinity nM'
Experimental: as §1

T6 sequence (Q14943 22-340 limits assumed): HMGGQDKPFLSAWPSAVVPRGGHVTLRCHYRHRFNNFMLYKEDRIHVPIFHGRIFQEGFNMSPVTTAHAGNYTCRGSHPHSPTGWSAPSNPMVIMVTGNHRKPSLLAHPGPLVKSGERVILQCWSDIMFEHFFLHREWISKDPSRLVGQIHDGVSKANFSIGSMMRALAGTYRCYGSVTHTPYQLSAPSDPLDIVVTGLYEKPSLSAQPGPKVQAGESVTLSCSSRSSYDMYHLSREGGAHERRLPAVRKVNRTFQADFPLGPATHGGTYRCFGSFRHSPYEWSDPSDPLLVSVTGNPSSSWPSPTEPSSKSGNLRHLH
T1 sequence (P02769 25-607 limits assumed): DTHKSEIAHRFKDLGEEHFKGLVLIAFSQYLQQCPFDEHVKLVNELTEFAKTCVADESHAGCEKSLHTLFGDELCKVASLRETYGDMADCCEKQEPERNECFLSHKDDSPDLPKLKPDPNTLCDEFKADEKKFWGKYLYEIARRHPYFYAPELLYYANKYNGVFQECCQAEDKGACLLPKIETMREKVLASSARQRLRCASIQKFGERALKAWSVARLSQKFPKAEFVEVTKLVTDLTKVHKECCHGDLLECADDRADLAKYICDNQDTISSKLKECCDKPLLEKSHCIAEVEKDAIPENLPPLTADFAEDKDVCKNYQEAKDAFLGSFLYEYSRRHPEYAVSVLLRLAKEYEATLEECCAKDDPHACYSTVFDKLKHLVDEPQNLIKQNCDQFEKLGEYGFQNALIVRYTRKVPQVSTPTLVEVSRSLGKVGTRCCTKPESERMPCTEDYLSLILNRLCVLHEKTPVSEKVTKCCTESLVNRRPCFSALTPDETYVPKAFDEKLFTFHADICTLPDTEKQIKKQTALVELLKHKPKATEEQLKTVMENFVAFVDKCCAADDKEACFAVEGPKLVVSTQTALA
T10 sequence (P43626 22-245 limits assumed): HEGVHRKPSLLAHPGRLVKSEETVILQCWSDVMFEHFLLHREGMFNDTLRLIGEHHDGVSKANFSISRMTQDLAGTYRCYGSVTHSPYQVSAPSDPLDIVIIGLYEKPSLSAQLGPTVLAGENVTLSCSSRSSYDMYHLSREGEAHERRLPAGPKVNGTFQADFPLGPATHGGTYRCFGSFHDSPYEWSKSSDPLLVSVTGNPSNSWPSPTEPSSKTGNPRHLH
T8 sequence (P43628 22-245 limits assumed): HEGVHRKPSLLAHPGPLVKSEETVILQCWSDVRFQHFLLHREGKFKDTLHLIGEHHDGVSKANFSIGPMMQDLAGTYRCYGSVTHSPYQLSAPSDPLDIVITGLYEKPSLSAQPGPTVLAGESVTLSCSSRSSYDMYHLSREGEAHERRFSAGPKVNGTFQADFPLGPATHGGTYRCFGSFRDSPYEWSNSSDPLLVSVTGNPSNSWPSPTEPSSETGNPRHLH
T4 sequence (Q8N743 26-322 limits assumed): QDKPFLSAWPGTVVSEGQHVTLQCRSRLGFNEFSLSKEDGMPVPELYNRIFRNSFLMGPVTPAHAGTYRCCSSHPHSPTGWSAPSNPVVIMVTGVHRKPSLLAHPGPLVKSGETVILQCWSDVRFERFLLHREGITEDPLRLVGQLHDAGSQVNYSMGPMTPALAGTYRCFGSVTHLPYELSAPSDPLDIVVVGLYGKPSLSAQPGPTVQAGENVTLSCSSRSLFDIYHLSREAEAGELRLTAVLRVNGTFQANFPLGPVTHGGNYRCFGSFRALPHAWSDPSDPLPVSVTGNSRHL
T3 sequence (Q99706 22-242 limits assumed): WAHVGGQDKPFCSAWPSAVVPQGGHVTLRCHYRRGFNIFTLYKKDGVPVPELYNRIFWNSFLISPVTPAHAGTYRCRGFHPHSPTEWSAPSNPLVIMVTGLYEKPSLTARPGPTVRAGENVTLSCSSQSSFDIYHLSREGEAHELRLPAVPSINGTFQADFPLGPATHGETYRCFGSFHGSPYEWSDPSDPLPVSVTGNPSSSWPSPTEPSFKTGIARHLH
T2 sequence (P43629 22-340 limits assumed): as the sequence (Q14943 22-340 limits assumed) above, with V47I, G58S, M92V, R136K, W138G, S163P, R166L, L199P, L315P counted along it
T7 sequence (P43627 22-245 limits assumed): as the sequence (P43628 22-245 limits assumed) above, with P16R, Q35E, R148C, T200I, E216K counted along it
T9 sequence (P43632 22-245 limits assumed): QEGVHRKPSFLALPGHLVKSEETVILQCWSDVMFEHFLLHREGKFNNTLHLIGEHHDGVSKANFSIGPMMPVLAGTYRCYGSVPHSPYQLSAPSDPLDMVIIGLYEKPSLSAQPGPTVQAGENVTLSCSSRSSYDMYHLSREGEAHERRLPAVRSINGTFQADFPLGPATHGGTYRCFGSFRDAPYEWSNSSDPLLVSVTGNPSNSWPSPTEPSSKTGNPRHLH
T5 sequence (P43630 22-340 limits assumed): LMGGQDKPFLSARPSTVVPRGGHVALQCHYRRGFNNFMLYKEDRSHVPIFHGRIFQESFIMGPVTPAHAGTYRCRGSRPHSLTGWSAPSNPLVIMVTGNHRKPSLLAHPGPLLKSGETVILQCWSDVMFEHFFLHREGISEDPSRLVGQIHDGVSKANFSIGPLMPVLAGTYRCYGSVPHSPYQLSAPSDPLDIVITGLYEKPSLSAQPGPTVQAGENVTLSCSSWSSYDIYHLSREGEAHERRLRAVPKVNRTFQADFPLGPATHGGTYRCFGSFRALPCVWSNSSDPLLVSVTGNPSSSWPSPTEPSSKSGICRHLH

Binder | binding result (BSA) | binding result [1] | binding result [2] | binding result [3] | binding result [4] | binding result [5] | Kd [6] | Kd [7] | Kd [8] | Kd [9] | Kd [10] | Kd [11] | Kd [12] | binding result [13] | binding result [14] | Kd [15]
B1 | no binding | no binding | no binding | no binding | no binding | no binding | 0.018 nM | 0.005 nM | 2.6 nM | 0.026 nM | – | – | – | – | – | –
B2 | no binding | – | – | no binding | no binding | – | 1800 nM | 79 nM | – | 1100 nM | 1900 nM | 2000 nM | 1800 nM | – | – | –
B3 | no binding | – | no binding | no binding | no binding | – | 12 nM | 38 nM | 55 nM | – | 10 nM | – | 54 nM | no binding | – | –
B4 | no binding | no binding | no binding | no binding | – | no binding | 40 nM | 0.1 nM | – | – | – | – | – | no binding | no binding | 67 nM

— US20180002420A1 (TRELLIS BIOSCIENCE, published 2018)
